# Earlier results in PMC4518304.
# Biological target: Asp26 (UniProt position 27, GAILVDFWAEW)
# Experiment: NMR
# Settings: reduced thioredoxin (per title of ref. 51)
substance,measurement,value
Thioredoxin (thioredoxin 1) (Escherichia coli),pKa,7.3–7.5
